Consider 3 molecules from patent publication US20220332770A1 (UNIVERSITY OF RHODE ISLAND BOARD OF TRUSTEES, published 2022).

In test [1] the target is murine TLR5 (HEK293 cells co-transfected with murine TLR5 and SEAP reporter gene) (murine) (UniProt Q9JLF7). Nature of the test: cell-based or functional assay.
The target in test [2] is murine TLR5 (HEK293 cells co-transfected with murine TLR5 and SEAP reporter gene) (murine, UniProt Q9JLF7 27-859). Briefly: cell-based or functional assay.
Sequence of murine TLR5 (HEK293 cells co-transfected with murine TLR5 and SEAP reporter gene) (Q9JLF7 27-859): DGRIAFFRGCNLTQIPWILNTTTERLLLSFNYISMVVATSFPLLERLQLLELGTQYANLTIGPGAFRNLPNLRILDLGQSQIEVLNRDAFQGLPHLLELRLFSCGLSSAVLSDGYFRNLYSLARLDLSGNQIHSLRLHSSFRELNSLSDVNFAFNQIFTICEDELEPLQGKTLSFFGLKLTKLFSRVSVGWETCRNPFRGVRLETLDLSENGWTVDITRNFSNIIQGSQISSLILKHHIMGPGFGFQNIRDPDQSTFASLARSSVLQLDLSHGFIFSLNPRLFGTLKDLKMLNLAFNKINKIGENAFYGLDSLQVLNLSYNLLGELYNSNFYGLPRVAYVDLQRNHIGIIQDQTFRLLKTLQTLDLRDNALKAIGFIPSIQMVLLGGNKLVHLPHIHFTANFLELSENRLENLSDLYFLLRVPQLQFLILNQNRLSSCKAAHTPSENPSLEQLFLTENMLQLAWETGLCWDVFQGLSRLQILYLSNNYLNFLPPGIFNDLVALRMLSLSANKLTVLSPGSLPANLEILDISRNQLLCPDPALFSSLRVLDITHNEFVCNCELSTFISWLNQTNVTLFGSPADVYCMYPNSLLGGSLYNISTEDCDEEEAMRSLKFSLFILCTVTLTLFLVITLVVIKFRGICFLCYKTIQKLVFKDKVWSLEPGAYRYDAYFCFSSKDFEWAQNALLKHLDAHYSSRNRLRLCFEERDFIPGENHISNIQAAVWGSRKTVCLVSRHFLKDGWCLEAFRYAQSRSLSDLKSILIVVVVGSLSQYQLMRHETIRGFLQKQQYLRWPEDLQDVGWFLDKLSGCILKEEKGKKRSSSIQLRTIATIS

Sequence of murine TLR5 (HEK293 cells co-transfected with murine TLR5 and SEAP reporter gene) (murine) (Q9JLF7 27-859): as above

In the case of “FLA-ST (ultrapure FliC purified from S. Typhimurium, Invivogen) (from UniProt P06179 2-495) (ligand)”, the lowest concentration to significantly activate TLR5 (SEAP reporter, OD620nm) in test [1] is 40 pM. On the same count and under the same terms, to “Recombinant FljB (phase 2 flagellin of S. Typhimurium strain LT2) (from UniProt P52616 1-506) (ligand)” belongs 8 pM.

B1: FljB-HBc fusion protein, self-assembled into FH VLPs (other)
chain: MDIDPYKEFGASVELLSFLPSDFFPSIRDLLDTASALYREALESPEHCSPHHTALRQAILCWGELMNLATWVGSNLEDPAGGGGSGGGGSAQVINTNSLSLLTQNNLNKSQSALGTAIERLSSGLRINSAKDDAAGQAIANRFTANIKGLTQASRNANDGISIAQTTEGALNEINNNLQRVRELAVQSANSTNSQSDLDSIQAEITQRLNEIDRVSGQTQFNGVKVLAQDNTLTIQVGANDGETIDIDLKQINSQTLGLDSLNVQKAYDVKDTAVTTKAYANNGTTLDVSGLDDAAIKAATGGTNGTASVTGGAVKFDADNNKYFVTIGGFTGADAAKNGDYEVNVATDGTVTLAAGATKTTMPAGATTKTEVQELKDTPAVVSADAKNALIAGGVDATDANGAELVKMSYTDKNGKTIEGGYALKAGDKYYAADYDEATGAIKAKTTSYTAADGTTKTAANQLGGVDGKTEVVTIDGKTYNASKAAGHDFKAQPELAEAAAKTTENPLQKIDAALAQVDALRSDLGAVQNRFNSAITNLGNTVNNLSEARSRIEDSDYATEVSNMSRAQILQQAGTSVLAQANQVPQNVLSLLRGGGGSGGGGSSRELVVSYVNVNMGLKIRQLLWFHISCLTFGRETVLEYLVSFGVWIRTPPAYRPPNAPILSTLPETTVVLEHHHHHH
For B1, in test [2], the “fold reduction of TLR5 activation ability against FLA-ST” value turned out to be 25 fold and the “fold reduction of TLR5 activation ability against FljB” value was over 100 fold.
